Laboratory results published in the supplement of paper PMC9170038.

System: MS2 coat protein
Test: apparent KD of MS2 coat protein; designed switch direction (-1 OFF switch, 1 ON switch): -1; higher = weaker reporter binding
Summary of the method: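 Designed RNA switches with common flanks were transcribed on Illumina chips by stalled E. coli RNA polymerase and titrated with SNAP-549-labelled MS2 coat protein, from 0.7 or 1.5 nM doubling to 3 µM, in Tris-HCl pH 7.5 buffer with KCl, MgCl2, BSA, DTT, tRNA and Tween-20. Steps lasted 0.8–1.5 h (lowest) to 10–20 min (highest). Titrations ran without input, with 200 uM small-molecule ligand, or with an oligonucleotide input. Normalised cluster fluorescence was curve-fitted, and apparent KD is the per-design median over clusters.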

[1] = input ligand: microRNA oligo, concentration not stated
[2] = Eterna round: R95, input ligand: FMN 200 uM
[3] = Eterna round: R95, input ligand: microRNA oligo, concentration not stated
[4] = Eterna round: R95, input ligand: none

For “GGCUGCAAUGUAGGAUAUCUGCACGUGUAGUGCAGAGAAGGACAUGAGGAUCACCCAUGUAUAGUAGCUUCGGCUACAGCAGCC [ENG1-D3] (Eterna round: R96, puzzle: Exclusion NG 1)”, the “apparent KD of MS2 coat protein” value (input ligand: FMN 200 uM) was 24.6 nM, the “apparent KD of MS2 coat protein” value [1] was 12.7 nM and the “apparent KD of MS2 coat protein” value (input ligand: none) was 18.2 nM.

For “GGGAAAGAGGUAAGGAUAUCCUCCUCGAAAGAGGAGGAGAAGGUACAUGAGGAUCACCCAUGUAAGAAGAAGAG [AK-MS2ROC-r4-Bmoexclusion4-13] (Eterna round: R97, puzzle: Brourd's mod of Exclusion 4)”, the “apparent KD of MS2 coat protein” value (input ligand: FMN 200 uM) was 25 nM and the “apparent KD of MS2 coat protein” value (input ligand: none) was 18.6 nM.

With “GGGAAGAACCAACAAGUAUACAUGAGGAUCACCCAUGUUCCUAGUGGGUAUGUAAAGAUUAAGAGAGCUCGUCUUAU [AK-miRNA-r3-10] (Eterna round: R97, puzzle: Sensor, turn-off variant 1)” the “apparent KD of MS2 coat protein” value (input ligand: FMN 200 uM) was 66.9 nM and the “apparent KD of MS2 coat protein” value (input ligand: none) was 75.3 nM.

“GGGCCCGGAGGAUAUACAAUGGGCCCGGGAAACCGGGUUUUACAUGAGGAUCACCCAUGUAGAAGGCCGGGCCC [-42.8, -38.99 kcal A 24%, 5a,0] (Eterna round: R97, puzzle: Exclusion 2)” was tested, and the “apparent KD of MS2 coat protein” value (input ligand: FMN 200 uM) was 15.6 nM and the “apparent KD of MS2 coat protein” value (input ligand: none) was 14.6 nM.

With “GGGCCCGGAGGAUAUACAUGAGGAUCACCCAUGUAUUUGGGCCCUAUUGGGCCCGGGUGUAGAAGGCCGGGCCC [-42.1, -39.5 kcal, A 19%, 5abis,0] (Eterna round: R97, puzzle: Exclusion 3)” the “apparent KD of MS2 coat protein” value (input ligand: FMN 200 uM) was 17.3 nM and the “apparent KD of MS2 coat protein” value (input ligand: none) was 14.6 nM.

For “GGGCCGGCCGGAGGAUAUGCGGCUUGGUUGGUCGGUGGGCCGGCCGGGACAUGAGGAUCACCCAUGUAGAAGGCUGGUUGGUUC [less GC, MS2 in another position, A 14%] (Eterna round: R96, puzzle: Exclusion NG 2)”, the “apparent KD of MS2 coat protein” value (input ligand: FMN 200 uM) was 58.2 nM, the “apparent KD of MS2 coat protein” value [1] was 42.8 nM and the “apparent KD of MS2 coat protein” value (input ligand: none) was 60.7 nM.

For “GGGCGGGCAGGAUAUACAUGAGGAUCACCCAUGUAUGUCCAAAGACAUACAUUCUUAUGUAGAAGGGCCCGCCC [Ex 4] (Eterna round: R97, puzzle: Exclusion 3)”, the “apparent KD of MS2 coat protein” value (input ligand: FMN 200 uM) was 142 nM and the “apparent KD of MS2 coat protein” value (input ligand: none) was 26.6 nM.

“GGGCUGCGACGCAGCCCAACAAAACAUGAGGAUCACCCAUGUCAGGAUAUACCGAUGCAGCAUCUGUAGAAGGGACAGAUCCAA [Tiraonin] (Eterna round: R96, puzzle: Exclusion NG 3)” was tested, and the “apparent KD of MS2 coat protein” value [1] was 61.9 nM.

For “GGGCUUCAAGUGAGGAUAUCUACGCAGUUGAAGCGAGAGAAGGCACAUGAGGAUCACCCAUGUAUAGAAGAAGA [Rausmausis] (puzzle: Brourd's mod of Exclusion 4)”, the “apparent KD of MS2 coat protein” value [2] was 116 nM, the “apparent KD of MS2 coat protein” value [3] was 26.5 nM and the “apparent KD of MS2 coat protein” value [4] was 29.1 nM.

In the case of “GGGUGUCCAGUGAGGAUAUCCAACGCUAAGGCGCAGGAGAAGGCACAUGAGGAUCACCCAUGUAGCUGAAGAAA [Onerbegeso] (puzzle: Brourd's mod of Exclusion 4)”, the “apparent KD of MS2 coat protein” value [2] was 49.9 nM, the “apparent KD of MS2 coat protein” value [3] was 14.1 nM and the “apparent KD of MS2 coat protein” value [4] was 20 nM.

With “GGUACUAACACGAAAGUGUUAGUACAAUAAGCUAGUGGAACAUGAGGAUCACCCAUGUCCUCAUUAGCUCGUCUUAG [Mat - Sensor v3 - Turn-off var 2 - D37] (puzzle: Sensor v3, turn-off variant 2)” the “apparent KD of MS2 coat protein” value [2] was 14.7 nM, the “apparent KD of MS2 coat protein” value [3] was 37.6 nM and the “apparent KD of MS2 coat protein” value [4] was 12.7 nM.

For “GGUACUAACACGAAAGUGUUAGUACUAUAAGCUUGUGUUACAUGAGGAUCACCCAUGUCCUCAUAGGCUCGUCUUGU [JL-sv3-2.17 mat747 mod] (puzzle: Sensor v3, turn-off variant 2)”, the “apparent KD of MS2 coat protein” value [2] was 105 nM, the “apparent KD of MS2 coat protein” value [3] was 51 nM and the “apparent KD of MS2 coat protein” value [4] was 115 nM.

“GGUACUAACACGAGAGUGUUAGUACUAUAAGCUUGUGUUACAUGAGGAUCACCCAUGUCCUCAUAGGCUCGUCUUAU [Mat - Sensor v3 - Turn-off var 2 - D80] (puzzle: Sensor v3, turn-off variant 2)” was tested, and the “apparent KD of MS2 coat protein” value [2] was 209 nM, the “apparent KD of MS2 coat protein” value [3] was 25.8 nM and the “apparent KD of MS2 coat protein” value [4] was 231 nM.
